Our source for the binding signal values is paper PMC4802922.

For this data set, the target named is Dnmt3a-CD wt;Dnmt3L (Mus musculus;) (UniProt O88508+Q9CWR8). Nature of the data set: 2-aminopurine fluorescence (base flipping). Conditions: 0.1 mM AdoMet; N15 of strand 1 = 2-aminopurine (replaces target C); C15 of strand 2 = 5-methylcytosine; Fluorescence polarization: 10 nM duplex, 0.1 mM AdoHcy, Dnmt3a reaction buffer (composition not given), 25 °C; enzyme up to 600-800 nM.
Sequence of Dnmt3a-CD wt;Dnmt3L (Mus musculus;) (O88508 608-908, chain 1 of 2): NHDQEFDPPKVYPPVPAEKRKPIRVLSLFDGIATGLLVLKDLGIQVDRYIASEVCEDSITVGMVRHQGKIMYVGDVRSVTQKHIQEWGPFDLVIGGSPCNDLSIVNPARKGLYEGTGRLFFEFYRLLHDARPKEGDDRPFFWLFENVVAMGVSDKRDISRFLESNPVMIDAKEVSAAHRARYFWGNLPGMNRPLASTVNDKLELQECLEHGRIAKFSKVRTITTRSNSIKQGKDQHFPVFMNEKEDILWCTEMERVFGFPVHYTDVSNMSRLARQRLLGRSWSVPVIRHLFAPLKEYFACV
Sequence of Dnmt3a-CD wt;Dnmt3L (Mus musculus;) (Q9CWR8 whole entry, chain 2 of 2): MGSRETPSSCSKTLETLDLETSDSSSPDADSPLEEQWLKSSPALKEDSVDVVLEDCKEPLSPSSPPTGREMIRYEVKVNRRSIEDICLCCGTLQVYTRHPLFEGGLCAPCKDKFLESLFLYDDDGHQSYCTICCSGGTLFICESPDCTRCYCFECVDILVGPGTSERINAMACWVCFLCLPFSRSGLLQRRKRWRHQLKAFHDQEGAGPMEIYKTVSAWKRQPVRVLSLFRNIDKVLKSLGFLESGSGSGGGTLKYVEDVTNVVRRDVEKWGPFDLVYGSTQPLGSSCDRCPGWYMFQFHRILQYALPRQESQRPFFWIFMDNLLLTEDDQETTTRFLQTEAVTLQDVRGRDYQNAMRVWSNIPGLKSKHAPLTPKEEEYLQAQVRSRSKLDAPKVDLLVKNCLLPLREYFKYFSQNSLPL

“CTGAATACTACTTGNGCTCTCTAACCTGAT / ATCAGGTTAGAGAGCGCAAGTAGTATTCAG [GBGC/CGMG]” yielded a binding signal of 100%.
